From article PMC5379939 come the findings set out here.

One experiment addresses GST-ELKS1(771–976). The experiment in a line: pull-down. The following applies: scale: GST-ELKS1(771–976) per MBP-bMunc13-2(1–305).
The target in another experiment is EYFP-ELKS1(771–976). The experiment in a line: FRET or BRET.

A word on the stoichiometry N: it is the number of molecules, sites or subunits per partner or assembly. The substance “MBP-bMunc13-2(1–305) (domain or fragment)” displayed a stoichiometry N with GST-ELKS1(771–976) of 1.69.
As to “ECFP-bMunc13-2(70–204) (domain or fragment)”, in the experiment with EYFP-ELKS1(771–976), the fold of the FRET value of cells coexpressing soluble ECFP and EYFP stood at 7 fold; the normalized FRET value amounted to 0.07.
